Laboratory results published in publication doi:10.1101/2024.02.24.581832.

Biological target: N-terminal domain of MtbClpC1 (residues 1-145) (Mycobacterium tuberculosis) (UniProt P9WPC9)
Assay: differential scanning fluorimetry

Sequence of UniProt P9WPC9 (P9WPC9 1-145): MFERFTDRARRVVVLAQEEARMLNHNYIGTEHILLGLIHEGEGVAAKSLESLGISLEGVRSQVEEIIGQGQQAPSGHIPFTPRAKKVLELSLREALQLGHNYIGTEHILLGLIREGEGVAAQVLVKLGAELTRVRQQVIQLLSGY

Row | Substance | ΔTm [°C]
1 | ilamycin E (peptide) | 3
2 | ilamycin F (peptide) | 1
